Experimental findings from patent publication US20220288203A1 are described below.

For assay [1], the target named is Human podocalyxin as endogenously expressed and displayed by tumor cell lines (A172, SKOV3, MIA PaCa-2, MDA-MB-231) (human) (UniProt O00592). Put plainly: KinExA 3200; titrated A172 cells with constant antibody, 16 h equilibrium, free antibody measured.
The target is the same in assay [2]. Description: flow cytometry titration on A172 cells, four-parameter fit (Prism). (In general: Flow cytometry measures light scatter and fluorescence of single cells or particles in a stream.)
Assay [3] has the same target. Description: KinExA 3200; titrated A172 cells with constant antibody, 16 h equilibrium. (Kinetic exclusion samples the free partner from a solution-phase mixture.)

Human podocalyxin as endogenously expressed and displayed by tumor cell lines (A172, SKOV3, MIA PaCa-2, MDA-MB-231) (human), sequence (O00592 23-558): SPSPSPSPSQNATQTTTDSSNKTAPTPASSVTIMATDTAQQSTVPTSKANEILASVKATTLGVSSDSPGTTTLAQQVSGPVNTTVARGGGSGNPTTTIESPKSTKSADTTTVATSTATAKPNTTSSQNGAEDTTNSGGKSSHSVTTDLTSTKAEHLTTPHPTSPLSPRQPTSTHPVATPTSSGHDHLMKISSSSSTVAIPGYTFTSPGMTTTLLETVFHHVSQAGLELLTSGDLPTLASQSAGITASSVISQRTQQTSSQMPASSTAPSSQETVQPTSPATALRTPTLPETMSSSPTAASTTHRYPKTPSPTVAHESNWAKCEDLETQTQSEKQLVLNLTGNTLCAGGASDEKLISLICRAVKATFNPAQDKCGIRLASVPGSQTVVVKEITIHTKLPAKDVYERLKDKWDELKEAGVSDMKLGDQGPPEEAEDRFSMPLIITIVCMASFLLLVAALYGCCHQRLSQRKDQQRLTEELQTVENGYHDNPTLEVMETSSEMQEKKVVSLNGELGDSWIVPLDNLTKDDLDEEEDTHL

B1: Humanized Podo447 (humanized_podo447VH_hIgG1C + humanized_podo447VL6_hIgkC) (antibody, V domains shown)
VH: EVQLVESGGGLVQPGRSLRLSCTASGFSLSGYQMNWVRQAPGKGLEWVGYIWSDGGTDYTASVKGRFTISRDGSKSIAYLQMNSLKTEDTAVYYCAREGYWLGAFDPWGQGTSVTVSA
VL: AAQLTQSPSPLSASVGDRVTITCQSSQSVHHKNDLAWYQQKPGKAPKLLIYYTSTLASGVPSRFSGSGSGTDFTLTISSLQPEDFATYYCAGVYEGSSDNRAFGGGTKVEIKR
The molecule B1 gave a Kd in assay [1] of 0.0144 nM. In addition, in assay [2], the Bottom (best-fit) was determined as 1940, the LogIC50 stood at 2.09, the Span (best-fit) amounted to 236000 and the Top (best-fit) came out at 238000. In assay [3], the Epitopes/Cell (epitopes/cell) amounted to 233000, the Kd High worked out at 0.0459 nM and the Kd Low was found to be 0.00459 nM.

B2: Podo447, recombinant rabbit/human chimeric anti-podocalyxin antibody (rabbit V genes, human IgG1 and kappa constant regions) (antibody, V domains shown)
VH: QSLEESGGRLVTPGTPLTLTCTASGFSLSGYQMNWVRQAPGKGLEWIGYIWSDGGTDYASWAKGRFTISKTSSTTVDLKMTSLTTEDTATYFCAREGYWLGAFDPWGPGTLVTVSS
VL: AAVLTQTPSPVSAAVGATVSVSCQSSQSVHHKNDLAWFQQKPGQPPKLLIYYTSTLASGVPSRFKGSGSGTQFTLTISDLECDDAATYYCAGVYEGSSDNRAFGGGTEVVVKR
In assay [1], B2 registered a Kd of 0.00757 nM. In assay [2], this molecule yielded a Bottom (best-fit) of 8630, a LogIC50 of 2.28, a Span (best-fit) of 371000 and a Top (best-fit) of 380000. Moreover, in assay [3], the Epitopes/Cell (epitopes/cell) turned out to be 420000, the Kd High came out at 0.0249 nM and the Kd Low came to 0.0023 nM.

The term Kd denotes the free concentration of one partner at which half of the binding sites on the other are occupied at equilibrium, for simple one-to-one binding. A low value points to tighter binding.
